Fewer inactive variants are shown than the library holds.
Experiments:
biotinyl-Phe-oxazolone = experiment: self-aminoacylation, catalytic enhancement (BFO) (fold over background); higher = more active; k-Seq, kA / k0A0; sequences stand for … in GGGAAUGGAUCCACAUCUACGAAUUC…UUCACUGCAGACUUGACGAAGCUG
Summary of the method: (§1)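 The uncatalyzed rate is the low-activity peak of a bimodal Gaussian fit, and catalytic enhancement is median kA divided by it. The kA values came from pseudo-first-order fits, with 1000 bootstraps, of per-sequence fraction reacted measured by streptavidin capture, triplicate qPCR and Illumina sequencing. Mutagenized RNA pools with a 21-nt variable region (0.43 μM) were reacted with each biotinyl-aminoacyl-oxazolone at 2–1250 μM in 50 μL HEPES/NaCl/KCl/MgCl2/CaCl2 buffer with 5% acetonitrile, pH 6.9–7.0, for 90 minutes at room temperature.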

biotinyl-Ile-oxazolone = experiment: self-aminoacylation, catalytic enhancement (BIO) (fold over background); higher = more active; k-Seq, kA / k0A0; sequences stand for … in GGGAAUGGAUCCACAUCUACGAAUUC…UUCACUGCAGACUUGACGAAGCUG
Summary of the method: as §1

biotinyl-Met-oxazolone = experiment: self-aminoacylation, catalytic enhancement (BMO) (fold over background); higher = more active; k-Seq, kA / k0A0; sequences stand for … in GGGAAUGGAUCCACAUCUACGAAUUC…UUCACUGCAGACUUGACGAAGCUG
Summary of the method: as §1

biotinyl-Val-oxazolone = experiment: self-aminoacylation, catalytic enhancement (BVO) (fold over background); higher = more active; k-Seq, kA / k0A0; sequences stand for … in GGGAAUGGAUCCACAUCUACGAAUUC…UUCACUGCAGACUUGACGAAGCUG
Summary of the method: as §1

biotinyl-Leu-oxazolone = experiment: self-aminoacylation, catalytic enhancement (BLO) (fold over background); higher = more active; k-Seq, kA / k0A0; sequences stand for … in GGGAAUGGAUCCACAUCUACGAAUUC…UUCACUGCAGACUUGACGAAGCUG
Summary of the method: as §1

biotinyl-Trp-oxazolone = experiment: self-aminoacylation, catalytic enhancement (BWO) (fold over background); higher = more active; k-Seq, kA / k0A0; sequences stand for … in GGGAAUGGAUCCACAUCUACGAAUUC…UUCACUGCAGACUUGACGAAGCUG
Summary of the method: as §1

CCACACUUAUAGCAAUCGGUC [Fam1B.1 aminoacylation ribozyme variant]
self-aminoacylation (biotinyl-Phe-oxazolone): 0.926 | self-aminoacylation (biotinyl-Ile-oxazolone): 1 | self-aminoacylation (biotinyl-Met-oxazolone): 0.667 | self-aminoacylation (biotinyl-Val-oxazolone): 0.927 | self-aminoacylation (biotinyl-Leu-oxazolone): 0.722 | self-aminoacylation (biotinyl-Trp-oxazolone): 0.886

CCACACUUCAACCAAUCAGUC [Fam1B.1 aminoacylation ribozyme variant]
self-aminoacylation (biotinyl-Phe-oxazolone): 28.8 | self-aminoacylation (biotinyl-Ile-oxazolone): 0.978 | self-aminoacylation (biotinyl-Met-oxazolone): 0.804 | self-aminoacylation (biotinyl-Val-oxazolone): 1.04 | self-aminoacylation (biotinyl-Leu-oxazolone): 1.04 | self-aminoacylation (biotinyl-Trp-oxazolone): 9.75

CCACACUUCAACCAAUCUGUC [Fam1B.1 aminoacylation ribozyme variant]
self-aminoacylation (biotinyl-Phe-oxazolone): 0.77 | self-aminoacylation (biotinyl-Ile-oxazolone): 0.426 | self-aminoacylation (biotinyl-Met-oxazolone): 0.419 | self-aminoacylation (biotinyl-Val-oxazolone): 0.607 | self-aminoacylation (biotinyl-Leu-oxazolone): 0.377 | self-aminoacylation (biotinyl-Trp-oxazolone): 0.369

CCACACUUCAAGAAAUCGCUC [Fam1B.1 aminoacylation ribozyme variant]
self-aminoacylation (biotinyl-Phe-oxazolone): 0.492 | self-aminoacylation (biotinyl-Ile-oxazolone): 1.13 | self-aminoacylation (biotinyl-Met-oxazolone): 1.14 | self-aminoacylation (biotinyl-Val-oxazolone): 1.05 | self-aminoacylation (biotinyl-Leu-oxazolone): 0.886 | self-aminoacylation (biotinyl-Trp-oxazolone): 0.881

CCACACUUCAAGAAAUCGGUG [Fam1B.1 aminoacylation ribozyme variant]
self-aminoacylation (biotinyl-Phe-oxazolone): 55.3 | self-aminoacylation (biotinyl-Ile-oxazolone): 4.82 | self-aminoacylation (biotinyl-Met-oxazolone): 6.53 | self-aminoacylation (biotinyl-Val-oxazolone): 3.53 | self-aminoacylation (biotinyl-Leu-oxazolone): 10.6 | self-aminoacylation (biotinyl-Trp-oxazolone): 8.37

CCACACUUCAAGCAAACGGUG [Fam1B.1 aminoacylation ribozyme variant]
self-aminoacylation (biotinyl-Phe-oxazolone): 10.7 | self-aminoacylation (biotinyl-Ile-oxazolone): 3.12 | self-aminoacylation (biotinyl-Met-oxazolone): 3.91 | self-aminoacylation (biotinyl-Val-oxazolone): 3.33 | self-aminoacylation (biotinyl-Leu-oxazolone): 5.1 | self-aminoacylation (biotinyl-Trp-oxazolone): 4.31

CCACACUUCAAGCAACCGGCC [Fam1B.1 aminoacylation ribozyme variant]
self-aminoacylation (biotinyl-Phe-oxazolone): 17.4 | self-aminoacylation (biotinyl-Ile-oxazolone): 3.66 | self-aminoacylation (biotinyl-Met-oxazolone): 4.29 | self-aminoacylation (biotinyl-Val-oxazolone): 3.58 | self-aminoacylation (biotinyl-Leu-oxazolone): 2.77 | self-aminoacylation (biotinyl-Trp-oxazolone): 5.33

CCACACUUCAAGCAAUAGGCC [Fam1B.1 aminoacylation ribozyme variant]
self-aminoacylation (biotinyl-Phe-oxazolone): 0.88 | self-aminoacylation (biotinyl-Ile-oxazolone): 0.939 | self-aminoacylation (biotinyl-Met-oxazolone): 0.9 | self-aminoacylation (biotinyl-Val-oxazolone): 1.04 | self-aminoacylation (biotinyl-Leu-oxazolone): 1.05 | self-aminoacylation (biotinyl-Trp-oxazolone): 0.71

CCACACUUCAAGCAAUCAGUG [Fam1B.1 aminoacylation ribozyme variant]
self-aminoacylation (biotinyl-Phe-oxazolone): 6.8 | self-aminoacylation (biotinyl-Ile-oxazolone): 3 | self-aminoacylation (biotinyl-Met-oxazolone): 3.58 | self-aminoacylation (biotinyl-Val-oxazolone): 2.83 | self-aminoacylation (biotinyl-Leu-oxazolone): 4.36 | self-aminoacylation (biotinyl-Trp-oxazolone): 2.99

CCACACUUCAAGCAAUCCUUC [Fam1B.1 aminoacylation ribozyme variant]
self-aminoacylation (biotinyl-Phe-oxazolone): 1.19 | self-aminoacylation (biotinyl-Ile-oxazolone): 0.89 | self-aminoacylation (biotinyl-Met-oxazolone): 0.649 | self-aminoacylation (biotinyl-Val-oxazolone): 0.899 | self-aminoacylation (biotinyl-Leu-oxazolone): 0.44 | self-aminoacylation (biotinyl-Trp-oxazolone): 0.533

CCACACUUCAAGCAAUCGACC [Fam1B.1 aminoacylation ribozyme variant]
self-aminoacylation (biotinyl-Phe-oxazolone): 1.25 | self-aminoacylation (biotinyl-Ile-oxazolone): 0.623 | self-aminoacylation (biotinyl-Met-oxazolone): 0.518 | self-aminoacylation (biotinyl-Val-oxazolone): 0.751 | self-aminoacylation (biotinyl-Leu-oxazolone): 0.399 | self-aminoacylation (biotinyl-Trp-oxazolone): 0.447

CCACACUUCAAGCAAUCGCAC [Fam1B.1 aminoacylation ribozyme variant]
self-aminoacylation (biotinyl-Phe-oxazolone): 0.785 | self-aminoacylation (biotinyl-Ile-oxazolone): 0.76 | self-aminoacylation (biotinyl-Met-oxazolone): 0.814 | self-aminoacylation (biotinyl-Val-oxazolone): 0.889 | self-aminoacylation (biotinyl-Leu-oxazolone): 0.465 | self-aminoacylation (biotinyl-Trp-oxazolone): 0.672

CCACACUUCAAGCAAUCGGAU [Fam1B.1 aminoacylation ribozyme variant]
self-aminoacylation (biotinyl-Phe-oxazolone): 0.817 | self-aminoacylation (biotinyl-Ile-oxazolone): 1.03 | self-aminoacylation (biotinyl-Met-oxazolone): 0.886 | self-aminoacylation (biotinyl-Val-oxazolone): 1.38 | self-aminoacylation (biotinyl-Leu-oxazolone): 0.789 | self-aminoacylation (biotinyl-Trp-oxazolone): 1.63

CCACACUUCAAGCAAUCUGCC [Fam1B.1 aminoacylation ribozyme variant]
self-aminoacylation (biotinyl-Phe-oxazolone): 0.603 | self-aminoacylation (biotinyl-Ile-oxazolone): 0.806 | self-aminoacylation (biotinyl-Met-oxazolone): 1.3 | self-aminoacylation (biotinyl-Val-oxazolone): 1.05 | self-aminoacylation (biotinyl-Leu-oxazolone): 0.787 | self-aminoacylation (biotinyl-Trp-oxazolone): 0.628

CCACACUUCAAGCAAUGGGUU [Fam1B.1 aminoacylation ribozyme variant]
self-aminoacylation (biotinyl-Phe-oxazolone): 0.91 | self-aminoacylation (biotinyl-Ile-oxazolone): 1.22 | self-aminoacylation (biotinyl-Met-oxazolone): 1.14 | self-aminoacylation (biotinyl-Val-oxazolone): 1.71 | self-aminoacylation (biotinyl-Leu-oxazolone): 1.39 | self-aminoacylation (biotinyl-Trp-oxazolone): 1.46

CCACACUUCAAGCACCCGGUC [Fam1B.1 aminoacylation ribozyme variant]
self-aminoacylation (biotinyl-Phe-oxazolone): 0.709 | self-aminoacylation (biotinyl-Ile-oxazolone): 1.55 | self-aminoacylation (biotinyl-Met-oxazolone): 1.74 | self-aminoacylation (biotinyl-Val-oxazolone): 1.75 | self-aminoacylation (biotinyl-Leu-oxazolone): 1.64 | self-aminoacylation (biotinyl-Trp-oxazolone): 2.07

CCACACUUCAAGCACUCGCUC [Fam1B.1 aminoacylation ribozyme variant]
self-aminoacylation (biotinyl-Phe-oxazolone): 2.93 | self-aminoacylation (biotinyl-Ile-oxazolone): 2.02 | self-aminoacylation (biotinyl-Met-oxazolone): 2.25 | self-aminoacylation (biotinyl-Val-oxazolone): 2.07 | self-aminoacylation (biotinyl-Leu-oxazolone): 2.39 | self-aminoacylation (biotinyl-Trp-oxazolone): 1.51

CCACACUUCAAGCAGACGGUC [Fam1B.1 aminoacylation ribozyme variant]
self-aminoacylation (biotinyl-Phe-oxazolone): 0.719 | self-aminoacylation (biotinyl-Ile-oxazolone): 0.686 | self-aminoacylation (biotinyl-Met-oxazolone): 0.607 | self-aminoacylation (biotinyl-Val-oxazolone): 0.57 | self-aminoacylation (biotinyl-Leu-oxazolone): 0.605 | self-aminoacylation (biotinyl-Trp-oxazolone): 0.539

CCACACUUCAAGCAUUAGGUC [Fam1B.1 aminoacylation ribozyme variant]
self-aminoacylation (biotinyl-Phe-oxazolone): 0.818 | self-aminoacylation (biotinyl-Ile-oxazolone): 0.501 | self-aminoacylation (biotinyl-Met-oxazolone): 0.399 | self-aminoacylation (biotinyl-Val-oxazolone): 0.645 | self-aminoacylation (biotinyl-Leu-oxazolone): 0.504 | self-aminoacylation (biotinyl-Trp-oxazolone): 0.516

CCACACUUCAAGCAUUCGGCC [Fam1B.1 aminoacylation ribozyme variant]
self-aminoacylation (biotinyl-Phe-oxazolone): 0.749 | self-aminoacylation (biotinyl-Ile-oxazolone): 1.84 | self-aminoacylation (biotinyl-Met-oxazolone): 1.25 | self-aminoacylation (biotinyl-Val-oxazolone): 1.99 | self-aminoacylation (biotinyl-Leu-oxazolone): 1.63 | self-aminoacylation (biotinyl-Trp-oxazolone): 1.69

CCACACUUCAAGCAUUCGUUC [Fam1B.1 aminoacylation ribozyme variant]
self-aminoacylation (biotinyl-Phe-oxazolone): 0.811 | self-aminoacylation (biotinyl-Ile-oxazolone): 0.852 | self-aminoacylation (biotinyl-Met-oxazolone): 0.685 | self-aminoacylation (biotinyl-Val-oxazolone): 1.02 | self-aminoacylation (biotinyl-Leu-oxazolone): 0.653 | self-aminoacylation (biotinyl-Trp-oxazolone): 0.688

CCACACUUCAAGCAUUGGGUC [Fam1B.1 aminoacylation ribozyme variant]
self-aminoacylation (biotinyl-Phe-oxazolone): 0.918 | self-aminoacylation (biotinyl-Ile-oxazolone): 1.04 | self-aminoacylation (biotinyl-Met-oxazolone): 1.03 | self-aminoacylation (biotinyl-Val-oxazolone): 1.4 | self-aminoacylation (biotinyl-Leu-oxazolone): 0.83 | self-aminoacylation (biotinyl-Trp-oxazolone): 0.956

CCACACUUCAAGCAUUUGGUC [Fam1B.1 aminoacylation ribozyme variant]
self-aminoacylation (biotinyl-Phe-oxazolone): 0.631 | self-aminoacylation (biotinyl-Ile-oxazolone): 0.835 | self-aminoacylation (biotinyl-Met-oxazolone): 0.691 | self-aminoacylation (biotinyl-Val-oxazolone): 0.851 | self-aminoacylation (biotinyl-Leu-oxazolone): 0.77 | self-aminoacylation (biotinyl-Trp-oxazolone): 0.912

CCACACUUCAAGCCAUCGGGC [Fam1B.1 aminoacylation ribozyme variant]
self-aminoacylation (biotinyl-Phe-oxazolone): 1.42 | self-aminoacylation (biotinyl-Ile-oxazolone): 2.49 | self-aminoacylation (biotinyl-Met-oxazolone): 1.85 | self-aminoacylation (biotinyl-Val-oxazolone): 3.22 | self-aminoacylation (biotinyl-Leu-oxazolone): 4.06 | self-aminoacylation (biotinyl-Trp-oxazolone): 2.1

CCACACUUCAAGCCAUGGGUC [Fam1B.1 aminoacylation ribozyme variant]
self-aminoacylation (biotinyl-Phe-oxazolone): 0.678 | self-aminoacylation (biotinyl-Ile-oxazolone): 1.15 | self-aminoacylation (biotinyl-Met-oxazolone): 1.13 | self-aminoacylation (biotinyl-Val-oxazolone): 0.952 | self-aminoacylation (biotinyl-Leu-oxazolone): 1.14 | self-aminoacylation (biotinyl-Trp-oxazolone): 0.675

— the supplement of paper PMC9233669
